Assay [1] deals with T1, L157A optineurin-GFP (OPTN_(L157A)-GFP) (human, UniProt Q96CV9 1-577, L157A).
T1 construct: optineurin, human, with the point mutation Leu157 to Ala made by site-directed mutagenesis; also called L157A mutant; not shown: GFP, C-terminal, kept
As to the kind of experiment: co-IP; Tet-on inducible RGC5 cells, doxycycline 1 ug/ml 16 h, expressing OPTNWT-, OPTN_(E50K)- or OPTN_(L157A)-GFP; lysate precipitated with polyclonal anti-GFP; eluates blotted with monoclonal anti-Rab8 or anti-TfR and anti-GFP; band intensity ratio relative to wild type.

The target of assay [2] is T2, E50K optineurin-GFP (OPTN_(E50K)-GFP) (human, UniProt Q96CV9 1-577, E50K).
T2 construct: optineurin, human, with the glaucoma-associated mutation Glu50 to Lys; also called E50K mutant; not shown: GFP, C-terminal, kept
T2 sequence (Q96CV9 whole entry E50K): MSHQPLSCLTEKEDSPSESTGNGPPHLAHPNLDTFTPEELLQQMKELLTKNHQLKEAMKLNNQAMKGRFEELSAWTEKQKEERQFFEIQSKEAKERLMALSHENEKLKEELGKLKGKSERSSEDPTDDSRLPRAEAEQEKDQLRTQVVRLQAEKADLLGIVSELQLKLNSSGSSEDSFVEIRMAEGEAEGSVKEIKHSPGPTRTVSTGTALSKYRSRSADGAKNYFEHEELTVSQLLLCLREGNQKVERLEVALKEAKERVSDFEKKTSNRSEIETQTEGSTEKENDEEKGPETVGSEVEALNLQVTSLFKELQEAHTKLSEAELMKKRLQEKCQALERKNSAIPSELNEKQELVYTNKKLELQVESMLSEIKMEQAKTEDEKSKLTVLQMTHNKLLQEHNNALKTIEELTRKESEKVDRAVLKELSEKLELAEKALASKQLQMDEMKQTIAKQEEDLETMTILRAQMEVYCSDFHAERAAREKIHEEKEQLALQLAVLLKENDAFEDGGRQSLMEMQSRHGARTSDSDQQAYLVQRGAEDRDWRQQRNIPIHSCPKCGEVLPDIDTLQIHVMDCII
Described as above.

T1 sequence (Q96CV9 whole entry L157A): as the sequence (Q96CV9 whole entry E50K) above, with K50E, L157A counted along it

Regarding “endogenous Rab8 of RGC5 cells (from UniProt P35280 1-207) (natural protein)”, in assay [1], the fold reduction of Rab8 binding against OPTNWT-GFP (fold lower than wild type) turned out to be 5. In addition, the fold increase of co-precipitated Rab8 against OPTNWT-GFP (fold higher than wild type) in assay [2] worked out at 5.

B1: endogenous transferrin receptor (TfR) of RGC5 cells (receptor, rat (endogenous in RGC5), UniProt Q99376 1-761, looked up)
chain: MMDQARSAFSNLFGGEPLSYTRFSLARQVDGDNSHVEMKLAADEEENADSNMKASVRKPKRFNGRLCFATIAVVIFFLIGFMIGYLGYCKRVEQKEECVRLAEAEEADKSENDETEYVPKSSRLFWADLKTLLSEKLNSIEFTDIIKQLSQNTYTPREAGSQKDENLAYYIENLFHDFKFSKVWRDEHYVKIQVKNSVSQNLVTINSGSNIDPVEAPEGYVAFSKAGEVTGKLVHANFGTKKDFEELNYSVNGSLVIVRAGKITFAEKVANAQSFNAIGVLIYMDRNTFPVVEADLQFFGHAHLGTGDPYTPGFPSFNHTQFPPSQSSGLPSIPVQTISRAAAEKLFKNMEGNCPPSWNIDSSCKLELSQNQNVKLTVNNVLKETRILNIFGVIKGYEEPDRYIVVGAQRDAWGPGVAKSSVGTGLLLKLAQVFSDMISKDGFRPSRSIIFASWTAGDYGAVGATEWLEGYLSSLHLKAFTYINLDKVVLGTSNFKVSASPLLYTLMGKIMQDVKHPIDGKYLYRDSNWISKIEELSLDNAAFPFLAYSGIPAVSFCFCEDEDYPYLGTKLDTYEILIQKVPQLNQMVRTAAEVAGQFIIKLTHDIELTLDYEMYNSKLLSFMKDLNQFKADIKDMGLSLQWLYSARGDYFRATSRLTTDFHNAEKTNRFVMREINDRIMKVEYHFLSPYVSPRESPFRHIFWGSGSHTLSALVENLRLRQKNITAFNETLFRNQLALATWTIQGVANALSGDIWNIDNEF
notes: transferrin receptor, endogenous in rat RGC5 cells, detected as a 95-kDa band by mouse monoclonal anti-human TfR (Zymed); The abstract calls RGC5 a rat cell line; also called 95-kDa TfR; source: endogenous, RGC5 lysate
With B1, the “fold reduction of co-precipitated TfR against wild type optineurin” value in assay [1] (partners not purified) was about 5 fold lower than wild type. For the same molecule, the “fold increase of co-precipitated TfR against wild type optineurin” value in assay [2] (partners not purified) is ~10 fold higher than wild type.

The record behind these values is article PMC2902519, “Impairment of Protein Trafficking upon Overexpression and Mutation of Optineurin” (PLoS ONE, 2010).
